In paper PMC2865030 one finds Kd and stoichiometry N data, which are given here for 1 molecule.

Assay in all cases: ITC
(In general: ITC needs no label: the signal is the heat of the interaction.)

Experiment [1] deals with C-terminal domain of yeast Hsp90 (yeast).
Experiment [2] has as its target yeast Hsp90 (wild type, His-tagged) (yeast) (UniProt P02829).
Experiment [3] has as its target yeast Hsp90 M705V (His-tagged) (yeast) (UniProt P02829).

B1: Tah1 (TPR-containing protein associated with Hsp90) (natural protein)
chain: MSQFEKQKEQGNSLFKQGLYREAVHCYDQLITAQPQNPVGYSNKAMALIKLGEYTQAIQMCQQGLRYTSTAEHVAIRSKLQYRLELAQGAVGSVQIPVVEVDELPEGYDRS
For the molecule B1, the Kd (in general, a measure of binding affinity in units of concentration) in experiment [1] amounted to 320 nM; in experiment [2], 780 nM; in experiment [3] it was 13000 nM. Further, the stoichiometry N – broadly, the number of molecules, sites or subunits per partner or assembly – in experiment [1] was determined as 0.93; in experiment [2], 1.1; in experiment [3], 0.83.
